# According to PMC4078364, “Complete sucrose hydrolysis by heat-killed recombinant Pichia pastoris cells entrapped in calcium alginate” (Microbial Cell Factories, 2014):
# B1: BfrA (Thermotoga maritima β-fructosidase) (Thermotoga maritima MSB8) (protein)
# chain: MFKPNYHFFPITGWMNDPNGLIFWKGKYHMFYQYNPRKPEWGNICWGHAVSDDLVHWRHLPVALYPDDETHGVFSGSAVEKDGKMFLVYTYYRDPTHNKGEKETQCVAMSENGLDFVKYDGNPVISKPPEEGTHAFRDPKVNRSNGEWRMVLGSGKDEKIGRVLLYTSDDLFHWKYEGVIFEDETTKEIECPDLVRIGEKDILIYSITSTNSVLFSMGELKEGKLNVEKRGLLDHGTDFYAAQTFFGTDRVVVIGWLQSWLRTGLYPTKREGWNGVMSLPRELYVENNELKVKPVDELLALRKRKVFETAKSGTFLLDVKENSYEIVCEFSGEIELRMGNESEEVVITKSRDELIVDTTRSGVSGGEVRKSTVEDEATNRIRAFLDSCSVEFFFNDSIAFSFRIHPENVYNILSVKSNQVKLEVFELENIWL
# notes: secreted to periplasm of Pichia pastoris PpBfrA(4x); N-glycosylated, 58 and 53 kDa (51 kDa deglycosylated); assayed in heat-killed whole cells
# Substrate: OC[C@H]1O[C@@](CO)(O[C@H]2O[C@H](CO)[C@@H](O)[C@H](O)[C@H]2O)[C@@H](O)[C@@H]1O
# Assay: DNSA reducing sugar assay, initial rates, Lineweaver-Burk
# Assay type: cell-based, Thermotoga maritima
# Settings: free (non-immobilized) heat-killed P. pastoris cells with periplasmic enzyme, 10-200 mM sucrose, 50 mM sodium acetate pH 5.5, 60 °C, cell-wall diffusion barrier
protein,measurement,value
B1,Km,99 mM
